Laboratory results: paper PMC3206816
Values joined by “and” are separate entries in the source; they are usually repeats but may differ in a detail not shown here. Identical values can stand only once.

Assays:
[1] = target: full-length HIV-1 Nef (RP14) (HIV-1); test: cross-linking; purified Nef with glutaraldehyde (0.0%, 0.025%, 0.05%, 0.075%, 0.1%) on ice for 15 minutes; 12% SDS-PAGE, silver stain and western blot with anti-His antibody
[2] = target: full-length HIV-1 Nef (RP14) (HIV-1); test: crystal structure; hanging drop, Nef at ~3.7 mg/ml; 0.1 M Tris pH 8.5, 0.2 M ammonium sulfate, 20% PEG 8000; space group P6(3)22, two chains in the asymmetric unit, tetramer with 4-fold symmetry formed through crystal symmetry; 3.5 Å

## full-length HIV-1 Nef (RP14) (natural protein)
[1]
  stoichiometry N: 2 and 4
[2]
  stoichiometry N: 4
